Patent publication US20130045206A1 (published 2013)

Key:
[1] = target: T1, human transferrin receptor (TfR) (human, UniProt P02786 1-760); assay: FACS on LS-174T cells, scFv on phage, anti-M13 detection (FIG. 7)
T1 construct: whole, on cells; Always the endogenous receptor on human tumour cell lines; no recombinant TfR was used; also called TfR/CD71

[2] = target: T1, human transferrin receptor (TfR); assay: cell-based or functional assay
[3] = target: T2, murine TfR (murine, UniProt Q62351 1-763); assay: FACS on murine FMA3 cells, 50 µg/ml, penta-His detection (FIG. 16-d right)
T2 construct: whole, on cells; Endogenous receptor on murine cell lines; also called murine transferrin receptor

[4] = target: T2, murine TfR; assay: flow cytometry on murine Ba/F3 cells, 10 µg/ml, anti-human Fc-phycoerythrin (FIG. 18 (b))

T1 sequence (P02786 whole entry): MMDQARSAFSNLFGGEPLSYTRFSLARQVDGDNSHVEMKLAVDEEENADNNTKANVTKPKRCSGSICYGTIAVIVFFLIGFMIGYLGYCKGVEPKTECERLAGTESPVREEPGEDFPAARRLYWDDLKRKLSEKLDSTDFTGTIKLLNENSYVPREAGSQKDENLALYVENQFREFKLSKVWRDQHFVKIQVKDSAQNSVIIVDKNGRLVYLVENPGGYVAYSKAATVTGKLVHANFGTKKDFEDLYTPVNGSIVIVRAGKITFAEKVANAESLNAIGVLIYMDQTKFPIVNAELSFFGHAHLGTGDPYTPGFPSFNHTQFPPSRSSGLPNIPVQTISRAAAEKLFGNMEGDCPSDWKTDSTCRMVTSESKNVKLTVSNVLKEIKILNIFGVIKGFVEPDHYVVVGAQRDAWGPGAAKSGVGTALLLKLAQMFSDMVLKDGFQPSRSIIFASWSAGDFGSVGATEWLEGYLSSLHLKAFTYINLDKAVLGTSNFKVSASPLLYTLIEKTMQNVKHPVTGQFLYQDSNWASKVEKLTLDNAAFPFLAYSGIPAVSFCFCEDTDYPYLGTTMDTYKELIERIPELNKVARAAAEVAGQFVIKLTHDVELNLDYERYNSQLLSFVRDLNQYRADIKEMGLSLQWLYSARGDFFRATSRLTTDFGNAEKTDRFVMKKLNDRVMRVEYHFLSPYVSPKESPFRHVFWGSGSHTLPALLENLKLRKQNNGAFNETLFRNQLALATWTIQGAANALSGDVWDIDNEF
T2 sequence (Q62351 whole entry): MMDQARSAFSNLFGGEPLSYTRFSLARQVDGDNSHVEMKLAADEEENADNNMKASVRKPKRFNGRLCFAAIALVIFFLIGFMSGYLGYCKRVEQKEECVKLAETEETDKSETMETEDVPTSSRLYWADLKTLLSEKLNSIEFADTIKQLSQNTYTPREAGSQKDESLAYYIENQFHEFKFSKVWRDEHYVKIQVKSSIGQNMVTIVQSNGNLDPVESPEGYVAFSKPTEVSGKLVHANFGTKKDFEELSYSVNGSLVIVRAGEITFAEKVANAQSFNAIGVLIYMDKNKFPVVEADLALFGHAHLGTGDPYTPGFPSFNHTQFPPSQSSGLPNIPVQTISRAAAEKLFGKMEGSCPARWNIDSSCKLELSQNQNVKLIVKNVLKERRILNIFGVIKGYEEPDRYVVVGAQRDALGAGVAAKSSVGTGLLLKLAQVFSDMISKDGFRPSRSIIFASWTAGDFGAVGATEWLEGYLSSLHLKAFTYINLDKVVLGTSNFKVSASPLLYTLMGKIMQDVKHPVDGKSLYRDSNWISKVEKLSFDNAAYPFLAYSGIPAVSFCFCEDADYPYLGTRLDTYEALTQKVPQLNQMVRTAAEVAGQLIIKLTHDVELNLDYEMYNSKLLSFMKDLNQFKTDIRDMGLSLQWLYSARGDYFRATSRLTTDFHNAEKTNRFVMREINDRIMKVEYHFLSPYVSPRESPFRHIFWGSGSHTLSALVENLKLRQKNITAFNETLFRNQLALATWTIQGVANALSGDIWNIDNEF

| Binder | binding result [1] | IC50 (µg/ml), proliferation test on the line ERY-1, three days [2] [µg/mL] | also measured |
| --- | --- | --- | --- |
| scFv-3TG9 (scFv, Monovalent human scFv, about 28 kDa; on phage or soluble depending on the assay; tags not described; also called anti-TfR scFv) scFv: QVQLVESGGGLVEPGGSLRLSCAASGFTFSNYAINWVRQAPGKGLEWVANIHHDGNGKYYVDSVEGRFTISRDNAKNSLYLQMDSLRAEDTAIYYCARDGYGGYLDLWGQGTLVTVSSGGGGSGGGGSGGGGSSELTQDPAVSVALGQTVRITCQGDSLRSYYASWYQQKPGQAPVLVIYGKNNRPSGIPDRFSGSGSGNTASLTITGAQAEDEADYYCAAWDDSLSGPVFGGGTKVTVLG | binds | – | – |
| scFv-3TF12 (scFv) scFv: QVQLQESGGGLVQPGGSLRLSCAASGFSFNTYTMHWVRQAPGKGLEWVADIAYDGSTKYYADSVKGRFTISRDNAKNSLYLQMNSLRAEDTAVYYCARDAVAGEGYFDLWGRGTLVTVSSGGGGSGGGGSGGGGSQSALTQDPAVSVALGQTVRITCQGDSLRSYYASWYQQLPGTAPKLLIYRNNQRPSGVPDRFSGSKSGTSASLAISGLRSEDEADYYCAAWDDSLSAWVFGGGTKLTVLGA | – | 0.35 | – |
| F12CH (other, Bivalent dimer of the scFv 3TF12, about 55 kDa, made in bacteria, held by a bond that DTT reduces; no Fc; also called anti-TfR F12CH; 3TF12 in the scFvCH format; not shown: tail from the bacterial vector pSYN-HIS-CYS (histidine tag, cysteine for dimerisation)) scFv: QVQLQESGGGLVQPGGSLRLSCAASGFSFNTYTMHWVRQAPGKGLEWVADIAYDGSTKYYADSVKGRFTISRDNAKNSLYLQMNSLRAEDTAVYYCARDAVAGEGYFDLWGRGTLVTVSSGGGGSGGGGSGGGGSQSALTQDPAVSVALGQTVRITCQGDSLRSYYASWYQQLPGTAPKLLIYRNNQRPSGVPDRFSGSKSGTSASLAISGLRSEDEADYYCAAWDDSLSAWVFGGGTKLTVLGA | – | 0.1 | binding result [3]: binds |
| F12-Fc (Fc fusion, Homodimer of about 110 kDa (2 x 55 kDa), made in CHO cells; also called scFv-F12-Fc; antibody F12 in the format scFv-Fc; not shown: constant CH2 and CH3 domains of a human IgG1 (vector pFuse-hG1)) QVQLQESGGGLVQPGGSLRLSCAASGFSFNTYTMHWVRQAPGKGLEWVADIAYDGSTKYYADSVKGRFTISRDNAKNSLYLQMNSLRAEDTAVYYCARDAVAGEGYFDLWGRGTLVTVSSGGGGSGGGGSGGGGSQSALTQDPAVSVALGQTVRITCQGDSLRSYYASWYQQLPGTAPKLLIYRNNQRPSGVPDRFSGSKSGTSASLAISGLRSEDEADYYCAAWDDSLSAWVFGGGTKLTVLGA | – | – | binding result [4]: binds |
| scFv-3 GH9 (scFv, Monovalent human scFv, about 28 kDa; on phage or soluble depending on the assay; tags not described; also called anti-TfR scFv) scFv: QVQLAESGGGLVKPGGSLRLSCAASGFTFSDYYMSWIRQAPGKGLEWVSYISTSGSSIYYVDSVKGRFTISRDNAKNSLYLQMDSLRDDDTAVYYCARDLHGDYAFDSWGQGTLVTVSSGGGGSGGGGSGGGGSSELTQDPAVSVALGQTVRITCQGDSLRSYYASWYQQKPGQAPVLVIYGKNNRPSGIPDRFSGSKSGNSASLDISGLQSEDEADYYCATWDDNLSGPIFGGGTKVTVLG | binds | – | – |
| scFv-3TF2 (scFv, Monovalent human scFv, about 28 kDa; on phage or soluble depending on the assay; tags not described; also called anti-TfR scFv) scFv: QVQLQQSGGGVVQPGGSLRLSCAASEFTFSASGMHWVRQAPGKGLEWMAFIAYDGNQKFYADSVKGRFTISRDNSKNTLYLQMDSLRGEDTAVYYCAKEMQREGYFDYWGQGTLVTVSSGGGGSGGGGSGGGGSNFMLTQDPAVSVALGQTVRITCQGDSLRSYYASWYQQKPGQAPVLVIYGKNNRPSGIPDRFSGSKSGNSASLDISGLQSEDEADYYCATWDDNLSGPIFGGGTKVTVLG | binds | – | – |
